What was measured:
[1] = system: Staphylococcus aureus (JCM-2151); test: Viability assay (survival rate) in cow's milk medium; assay type: cell-based
Protocol: The colonies grown on the culture medium were scraped by a platinum loop and cultivated in 1% peptone (by Difco Company) culture medium for several hours at 37° C., and the resultant microbial culture at logarithmic phase was used as the preculture in a serial concentration of 3×10^8 /ml.
A quantity of the resultant solutions of the samples were selectively mixed with a quantity of the basal medium, thereby test media for the respective tests were prepared in the combinations and eventual concentrations as specified in the respective tests.
Utilizing the samples (5), (7), (8), (9), (10), (14), (15), (17), (18) and (19), test media were prepared in the same manner as in the preparation of the test media containing sample (3) and the like, except that the aqueous solution (in the cases of samples (5) and (7), aqueous suspensions) were not dealt with sterilization filters.
To 2 ml aliquots of test media prepared in (3-1) (supra), […] aliquots of the preculture of Staphylococcus aureus prepared in (1) (2. Method, supra) were added, then incubated at 37° C. for 1 hour, 200 μl aliquots of the resultant cultures were taken out and diluted with 1% peptone solution in a series of 10^n respectively, 110 μl aliquots of the resultant dilution series were spread onto plates of standard agar culture medium, and after incubation at 37° C. for 24 hours the number of colonies grown on the plates were counted (Test. Colony Count).
Control coloney counts 1 were determined in the same manner as in the determination of the test coloney counts, except that […] aliquots of the preculture of Staphylococcus aureus prepared in (1) (2. Method, supra) were added to 2 ml aliquots of the respective control media 1 prepared in (3-2) (supra). Furthermore, control coloney counts 2 were determined in the same manner as in the determination of the test coloney counts, except that […] aliquots of the preculture of Staphylococcus aureus prepared in (1) (supra) were added to 2 ml aliquots of the respective control media 1 prepared in (3-2) (supra).
Survival rate 1=(Test Colony Count/Control Colony Count 1)×100
Survival rate 2=(Control Colony Count 2/Control Colony Count 1)×100
(Note: In the tables shown hereinafter, vulues of survival rate 2 are indicated in the row where the concentration of antimicrobial peptide or lactoferrin hydrolysate is 0.)

[2] = system: microorganisms belonging to the genera of Staphylococcus and Enterococcus; conditions: Journal of Dairy Science, Vol. 67, page 606, 1984; cited from earlier work

B1: lactoferrin: Bovine lactoferrin on the market (by Sigma Company) (protein)
chain: APRKNVRWCTISQPEWFKCRRWQWRMKKLGAPSITCVRRAFALECIRAIAEKKADAVTLDGGMVFEAGRDPYKLRPVAAEIYGTKESPQTHYYAVAVVKKGSNFQLDQLQGRKSCHTGLGRSAGWIIPMGILRPYLSWTESLEPLQGAVAKFFSASCVPCIDRQAYPNLCQLCKGEGENQCACSSREPYFGYSGAFKCLQDGAGDVAFVKETTVFENLPEKADRDQYELLCLNNSRAPVDAFKECHLAQVPSHAVVARSVDGKEDLIWKLLSKAQEKFGKNKSRSFQLFGSPPGQRDLLFKDSALGFLRIPSKVDSALYLGSRYLTTLKNLRETAEEVKARYTRVVWCAVGPEEQKKCQQWSQQSGQNVTCATASTTDDCIVLVLKGEADALNLDGGYIYTAGKCGLVPVLAENRKSSKHSSLDCVLRPTEGYLAVAVVKKANEGLTWNSLKDKKSCHTAVDRTAGWNIPMGLIVNQTGSCAFDEFFSQSCAPGADPKSRLCALCAGDDQGLDKCVPNSKEKYYGYTGAFRCLAEDVGDVAFVKNDTVWENTNGESTADWAKNLNREDFRLLCLDGTRKPVTEAQSCHLAVAPNHAVVSRSDRAAHVKQVLLHQQALFGKNGKNCPDKFCLFKSETKNLLFNDNTECLAKLGGRPTYEEYLGTEYVTAIANLKKCSTSPLLEACAFLTR
[1]; Test 1: peptide 0, lactoferrin 0.1 mg/ml
  survival rate: 150
[1]; Test 1: peptide 0, lactoferrin 1 mg/ml
  survival rate: 150
[1]; Test 1: peptide 0, lactoferrin 10 mg/ml
  survival rate: 104
[1]; Test 20: peptide 0, 1-monolauroyl-rac-glycerol 0, bovine lactoferrin 1 mg/ml
  survival rate: 105%
[1]; compound alone
  antimicrobial activity of the compound added without antimicrobial peptide or lactoferrin hydrolysate (in words): no antimicrobial activity was observed
[1]; with antimicrobial peptide Seq. ID No. 26
  effect of the coexisting compound on the antimicrobial activity of the antimicrobial peptide (in words): augments the antimicrobial activity of the peptide
[1]; with antimicrobial peptide Seq. ID No. 27
  effect of the coexisting compound on the antimicrobial activity of the antimicrobial peptide (in words): further augments the antimicrobial activity of the antimicrobial peptides
[2]
  concentration in which lactoferrin exhibits antimicrobial activity: 0.5 to 80 mg/mL
